Test results reported in patent US20170355757A1 (Regeneron, published 2017).
Where a chain is given by its changes, count along the chain named. Numbers in names are those of the source.

T1: monkey C5-mmh (monkey, UniProt P01031 19-1676 (human entry), limits assumed)
T1 construct: recombinant, with C-terminal myc-myc-hexahistidine tag
T1 chain: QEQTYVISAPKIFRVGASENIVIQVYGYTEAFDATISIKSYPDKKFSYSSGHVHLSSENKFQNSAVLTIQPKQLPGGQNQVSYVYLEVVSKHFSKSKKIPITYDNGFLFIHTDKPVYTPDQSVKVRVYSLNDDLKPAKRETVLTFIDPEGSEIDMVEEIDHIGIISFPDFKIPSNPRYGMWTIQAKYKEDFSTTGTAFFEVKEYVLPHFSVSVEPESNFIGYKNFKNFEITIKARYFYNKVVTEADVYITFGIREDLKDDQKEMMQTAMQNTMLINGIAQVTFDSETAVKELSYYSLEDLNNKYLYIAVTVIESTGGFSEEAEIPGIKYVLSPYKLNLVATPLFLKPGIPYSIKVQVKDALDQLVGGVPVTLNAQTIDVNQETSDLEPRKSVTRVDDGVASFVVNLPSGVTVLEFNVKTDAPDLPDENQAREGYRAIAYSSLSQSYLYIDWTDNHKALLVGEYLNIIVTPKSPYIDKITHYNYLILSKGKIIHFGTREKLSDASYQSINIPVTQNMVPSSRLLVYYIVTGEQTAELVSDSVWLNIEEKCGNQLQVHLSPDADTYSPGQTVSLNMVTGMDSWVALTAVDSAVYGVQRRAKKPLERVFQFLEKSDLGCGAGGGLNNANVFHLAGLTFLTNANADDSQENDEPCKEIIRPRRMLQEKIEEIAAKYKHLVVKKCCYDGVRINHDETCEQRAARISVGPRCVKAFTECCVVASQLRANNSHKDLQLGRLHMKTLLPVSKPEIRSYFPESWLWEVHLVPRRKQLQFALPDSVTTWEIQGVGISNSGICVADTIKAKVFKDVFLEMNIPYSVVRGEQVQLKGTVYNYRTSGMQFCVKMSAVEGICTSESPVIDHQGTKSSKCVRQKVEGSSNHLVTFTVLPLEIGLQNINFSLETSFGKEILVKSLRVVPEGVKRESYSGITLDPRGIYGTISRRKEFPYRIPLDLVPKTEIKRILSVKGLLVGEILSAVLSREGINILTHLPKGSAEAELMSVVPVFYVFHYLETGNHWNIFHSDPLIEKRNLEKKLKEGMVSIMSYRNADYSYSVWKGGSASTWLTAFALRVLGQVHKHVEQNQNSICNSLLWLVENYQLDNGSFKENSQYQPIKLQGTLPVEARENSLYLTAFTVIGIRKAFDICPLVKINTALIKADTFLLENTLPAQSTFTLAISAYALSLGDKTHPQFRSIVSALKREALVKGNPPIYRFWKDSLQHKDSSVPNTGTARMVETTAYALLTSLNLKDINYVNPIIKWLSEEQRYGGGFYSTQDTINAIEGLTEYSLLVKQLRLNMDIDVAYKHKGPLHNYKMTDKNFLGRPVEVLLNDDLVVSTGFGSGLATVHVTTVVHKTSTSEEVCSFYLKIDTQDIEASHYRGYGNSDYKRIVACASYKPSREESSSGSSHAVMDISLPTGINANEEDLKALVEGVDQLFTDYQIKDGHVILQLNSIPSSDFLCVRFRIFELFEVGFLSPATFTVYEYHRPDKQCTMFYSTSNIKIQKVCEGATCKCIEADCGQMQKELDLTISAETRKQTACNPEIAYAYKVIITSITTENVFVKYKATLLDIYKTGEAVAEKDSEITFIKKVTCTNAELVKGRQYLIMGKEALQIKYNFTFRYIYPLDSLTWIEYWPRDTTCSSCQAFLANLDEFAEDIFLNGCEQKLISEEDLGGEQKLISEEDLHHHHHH

B1: H4H11683N (antibody, human IgG4, V domains shown)
VH: QVQLVESGGGVVQPGRSLRLSCVASGFTFSSYGIHWVRQAPGKGLEWVAVIWDDGNNINYSDSVKGRFIISRDNSRKTVYLQMNSLRGEDTAVYYCARDAPIAPVPDYWGQGTLVTVSS
VL: DIQMTQSPSTLSASVGDRVTITCRASQSISSWLAWYQQKPGKAPKLLIYKASSLDTGVPSRFSGSGSGTEFTLTISSLQPDDFATYYCQQYNTYSYTFGLGTKLEIK
notes: tested with H4H prefix (human IgG4 Fc with S108P hinge mutation); variable regions follow the numerical identifier; also called H2M11683N
B2: H4H12159P (antibody, human IgG4, V domains shown)
VH: QVQLVESGGGVVQPGRSLRLSCGASGFTFSTYGMHWVRQAPGKGLEWVAVIWDDGNNKYYADSVKGRFTISRDNSKNTLYLQMNSLRAEDTAVYYCARDSEVAPVGDYWGQGTLVTVSS
VL: B1 VL with T22I, S30N, S31R, D55E, T56S, T85A, T93D, L100Q
notes: H4H: human IgG4 Fc with S108P hinge mutation

Columns and labels:
human C5 [1] = molecular target: T2, human C5 (human, UniProt P01031 19-1676); test: SPR (Biacore), mAb captured, dissociation of human C5 at pH7.4 vs pH6.0, 37°C
T2 construct: native C5 purified from plasma (EMD) in the Biacore and Octet assays, C5 of normal human serum in the CDC and hemolysis assays; two chains (alpha and beta); also called hC5; complement factor 5
Procedure, shortened: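 Anti-C5 mAbs (human IgG4 Fc) captured on an amine-coupled mouse anti-human Fc surface; recombinant C5 dissociation followed by Biacore T200 in PBS-T (0.01M phosphate, 0.15M NaCl, 0.05% Tween-20) at pH7.4 or pH6.0. Dissociative half-life (t½) calculated from kd.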

monkey C5-mmh [2] = molecular target: T1, monkey C5-mmh; test: SPR (Biacore), mAb captured, dissociation of monkey C5 at pH7.4 vs pH6.0, 25°C
monkey C5-mmh [3] = molecular target: T1, monkey C5-mmh; test: SPR (Biacore), mAb captured, dissociation of monkey C5 at pH7.4 vs pH6.0, 37°C
human C5 R885C-mmh = human C5 R885C-mmh (human, UniProt P01031 19-1676); test: cell-based or functional assay
human C5 [4] = molecular target: T2, human C5; test: cell-based or functional assay
African green monkey C5 [5] = molecular target: T3, African green monkey C5 (African green monkey); test: cell-based or functional assay
human C5 R885H-mmh = human C5 R885H-mmh (human, UniProt P01031 19-1676); test: cell-based or functional assay
Cynomolgus monkey C5 = Cynomolgus monkey C5 (cynomolgus monkey, UniProt A0A2K5U1T1 19-1676); test: cell-based or functional assay
African green monkey C5 [6] = molecular target: T3, African green monkey C5; test: cell-based or functional assay; remark: listed apart in the source
human C5 [7] = molecular target: T2, human C5; test: cell-based or functional assay; remark: listed apart in the source

Row | Binder | t½ Ratio pH7.4/pH6.0 (human C5 [1]) | t½ Ratio pH7.4/pH6.0 (monkey C5-mmh [2]) | t½ Ratio pH7.4/pH6.0 (monkey C5-mmh [3]) | IC50, inhibition of CDC of Daudi cells, C5 depleted human serum and 6.6 nM C5 Variant R885C (human C5 R885C-mmh) | IC50, inhibition of CDC of Daudi cells, 1.66% human serum (human C5 [4]) | IC50, inhibition of CDC of Daudi cells, 1.66% African Green monkey serum (African green monkey C5 [5]) | IC50, inhibition of CDC of Daudi cells, C5 depleted human serum and 6.6 nM C5 Variant R885H (human C5 R885H-mmh) | Cyno AP % Max Inhibition, hemolysis assay, 5% serum (Cynomolgus monkey C5) | Cyno CP % Max Inhibition, hemolysis assay, 5% serum (Cynomolgus monkey C5) | Cyno Serum AP IC50, hemolysis assay, 5% serum (Cynomolgus monkey C5) | Cyno Serum CP IC50, hemolysis assay, 5% serum (Cynomolgus monkey C5) | AGM AP % Max Inhibition, hemolysis assay, 5% serum (African green monkey C5 [6]) | AGM CP % Max Inhibition, hemolysis assay, 5% serum (African green monkey C5 [6]) | AGM Serum AP IC50, hemolysis assay, 5% serum (African green monkey C5 [6]) | AGM Serum CP IC50, hemolysis assay, 5% serum (African green monkey C5 [6]) | Human AP % Max Inhibition, hemolysis assay, NHS (human C5 [7]) | Human AP IC50, hemolysis assay, NHS (human C5 [7]) | Human CP % Max Inhibition, hemolysis assay, NHS (human C5 [7]) | Human CP IC50, hemolysis assay, NHS (human C5 [7])
1 | B1 | 1.4 | 0.34 | 0.7 | 0.9 nM | 1.2 nM | 4 nM | 1.3 nM | 98.9% | 98.8% | 7.15 nM | 9 nM | 88.1% | 81.1% | 40.8 nM | 29.2 nM | 73.2% | 34 nM | 98.1% | 2.54 nM
2 | B2 | ≤ 0.2 | 1.2 | 6.3 | 1 nM | 3.2 nM | 3.4 nM | 1.4 nM | 99.6% | 99.3% | 7.05 nM | 7.75 nM | 93.5% | 93.4% | 27 nM | 25.8 nM | 73.4% | 17.5 nM | 97.9% | 2.5 nM
